# Source: article PMC5000626, “Urinary Dopamine as a Potential Index of the Transport Activity of Multidrug and Toxin Extrusion in the Kidney” (International Journal of Molecular Sciences, 2016)
# System: NCCc1ccc(O)c(O)c1
# Assay: cells, lysate or membranes
# Conditions: other: [3H]dopamine uptake at 1 min, HEK293 cells expressing hMATE2-K, mean ± S.E., n=3; pH 7.4; 37.0 °C
# Chain of hMATE2-K (Homo sapiens) (chain, as listed by the source): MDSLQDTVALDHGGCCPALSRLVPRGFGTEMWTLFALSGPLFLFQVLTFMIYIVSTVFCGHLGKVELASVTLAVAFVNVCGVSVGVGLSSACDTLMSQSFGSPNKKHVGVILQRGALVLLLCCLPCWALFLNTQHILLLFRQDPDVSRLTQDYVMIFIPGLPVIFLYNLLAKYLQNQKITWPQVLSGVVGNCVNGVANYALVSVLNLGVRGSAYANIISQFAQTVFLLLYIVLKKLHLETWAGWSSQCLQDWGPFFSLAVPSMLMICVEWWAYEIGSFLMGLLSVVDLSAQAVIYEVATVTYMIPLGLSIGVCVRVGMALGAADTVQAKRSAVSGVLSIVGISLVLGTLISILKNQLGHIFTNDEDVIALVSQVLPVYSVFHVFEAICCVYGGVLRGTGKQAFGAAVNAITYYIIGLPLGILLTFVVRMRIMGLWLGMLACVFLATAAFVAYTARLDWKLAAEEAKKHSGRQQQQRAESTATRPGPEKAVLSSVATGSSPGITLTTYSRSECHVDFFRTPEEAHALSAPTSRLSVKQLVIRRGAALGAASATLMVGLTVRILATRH
substance,measurement,value
hMATE2-K (Homo sapiens),Km,2480 ± 650 µM
